Assay results published in paper doi:10.1101/2020.09.10.281741.

Key:
[1] = biological target: Glc-HMW1ct (glycosylated HMW1ct, mixture of 7,8,9,10-Glc glycoforms) (H. influenzae); assay: SPR
[2] = biological target: His6-HMW1ct (C-terminal region of the HMW1A adhesin of H. influenzae, non-glycosylated) (H. influenzae); assay: SPR

“ApNGT-His6 (N-glycosyltransferase from Actinobacillus pleuropneumoniae) (from UniProt A3N2T3 1-620) (enzyme)” gave a Kd [1] of 9.81 µM and a Kd [2] of 5.85 µM.
